B1: AerR (natural protein)
chain: MNGVAELQTVLVNRMVELATGPELGAMDLLFDEFRAAHVPVEEMATHYIPEAARQIGAAWDSDRIGFAQVTIAISRLQELLHALQTLVTADSVGCANGATVLLIVPPGEQHTLGALIVAMELRRRGVSVRIVFAPGLSDLSRLMATTRFDAALITVGSMDRVEICAKLVKTLSSLTKGRMRVAIGGAIVSQRAEALARTGADLVTNDLSLVISEFSLV
B2: CrtJ (natural protein, Rhodobacter capsulatus, UniProt P26167 1-469, looked up)
chain: MTSDGSFLMRREALQRVSPDLLADIVTSACDIALVVSPGRVVESVMVNPQFGSAERFAAWQGARLSQLFSPESAQKLENRLADGPEPGRSLQLELTHAADAFTLPVRYTITRSGEDGTLLLIGRDMQPLAEVQQQLVKAQLALERDYEAQREIETRYRVLLEAHPAPLLIVSMSTGRIADLNLAAAAMIGATRAELIDAPVGQELDGRRRGEFLENLAKIAGSDPLGAVELTIRRSRRKVTVTATLFRAAGDRLLLCRLGEAEARRTRVDDTVELSERLFLKGIDAMVFLDADGTIRAANDAFLYLTDAGSAALVQGRSFADFLSRGAVDLNVLLDNVKRIGHLRHYVTRLNTDFSGQVTVELSATLFHDRATPTIALVIRDSNLADATRIMPGMASNEGLRNVMQMVGYATLRDIVSETTEIIEKMCIETALELTGNNRVAAAELLSLSRQSLYVKLRKFGLLSKDAE
notes: CrtJ, aerobic repressor of photosystem genes, Rhodobacter capsulatus (strain SB1003 is the wild-type parent); calculated molecular mass of the dimer 101.0 kDa; also called CrtJ2; CrtJ dimer; source: E. coli BL21(DE3) bearing pSUMO-CrtJ, overexpressed as SUMO-tagged protein, purified according to previous studies

What was measured:
[1] = tested on: CrtJ;AerR (Rhodobacter capsulatus;Rhodobacter capsulatus); test: EMSA; details: EMSA with 10 nM bchC DNA, oxidizing (O2) or reducing (10 mM DTT), Hill fit; buffer, salt, pH and temperature not in the material (reported previously, ref. 20)
CrtJ = target: B2; test: SEC-MALS; size exclusion chromatography coupled with multiangle light scattering (Wyatt), analysed with ASTRA 6, BSA for calibration; CrtJ alone and CrtJ with added AerR; details: both partners purified
[2] = target: the molecule itself; test: as above

Molecule: bchC promoter EMSA probe, 325 bp
binding signal (fold higher affinity than CrtJ alone) [1]: 6

Molecule: B1
stoichiometry N (CrtJ): 0.5 AerR per CrtJ chain (1:2)

Molecule: B2
stoichiometry N [2]: 2

Source: paper PMC5362033, “The Vitamin B12-Dependent Photoreceptor AerR Relieves Photosystem Gene Repression by Extending the Interaction of CrtJ with Photosystem Promoters” (mBio, 2017)
